Target: cystatin C^EX (human) (UniProt P01034)
Test: ELISA; two-fold serial dilutions of cystatin C^EX coated on the plate overnight at 4 °C, 10 μg/mL ECD-Fc added for 2 h at room temperature, anti-human-IgG-Fc-HRP

UniProt P01034, sequence (P01034 27-146): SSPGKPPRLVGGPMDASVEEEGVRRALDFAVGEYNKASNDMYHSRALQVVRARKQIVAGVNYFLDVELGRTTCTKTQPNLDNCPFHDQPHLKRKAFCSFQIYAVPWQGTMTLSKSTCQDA

| EC50 [nM] | Substance |
| --- | --- |
| 1180 | LILRB5 ECD-Fc (commercial) (from UniProt O75023 24-458) (Fc fusion) |
| 22.8 | LILRB2 ECD-Fc (commercial) (from UniProt Q8N423 22-460) (Fc fusion) |
